Columns and labels:
[1] = biological target: N1-fused SRC kinases; experiment: split reporter (BiFC, NanoBiT); Gaussia princeps luciferase complementation assay in human HEK293T cells; Gluc2 at the N terminus of SKAP1 or SKAP2 (N2), Gluc1 at the N terminus (N1) or C terminus (C1) of the SRC kinase; 100 ng plasmid pair, PEI; luminescence read in lysate one day later; normalized luminescence ratio (NLR), given relative to wild type or to SKAP2
[2] = biological target: C1-fused SRC kinases; experiment: as above

| Binder | wild-type normalized NLR, mean over SRC kinases [1] | wild-type normalized NLR, mean over SRC kinases [2] |
| --- | --- | --- |
| SKAP1 ΔPH deletion mutant, N2-fused (natural protein) MQAAALPEEIRWLLEDAEEFLAEGLRNENLSAVARDHRDHILRGFQQIKARYYWDFQPQGGDIGQDSSDDNHSGTLGLSLTSDAPFLSDYQDEGMEDIVKGAQELDDLSSLTIPYEEDEEEEEKEETYDDIDGFDSPSCGSQCRPTILPGSVGIKEPTEEKEEEDIYEVLPDEEHDLEEDESGTRRKGVDYASYYQGLWDCHGDQPDELSFQRGDLIRILSKEYNMYGWWVGELNSLVGIVPKEYLTTAFEVEER | 1.35 | 0.87 |
| SKAP1 Link2SH3 mutant, N2-fused (domain or fragment) SSLTIPYEEDEEEEEKEETYDDIDGFDSPSCGSQCRPTILPGSVGIKEPTEEKEEEDIYEVLPDEEHDLEEDESGTRRKGVDYASYYQGLWDCHGDQPDELSFQRGDLIRILSKEYNMYGWWVGELNSLVGIVPKEYLTTAFEVEE | 0.29 | 0.51 |
| SKAP1 DomDIM mutant, N2-fused (domain or fragment) MQAAALPEEIRWLLEDAEEFLAEGLRNENLSAVARDHRDHILRGFQQIKARYYWDFQPQGGDIGQDSSDDNHSGTLGLSLTSDAPFLSDYQDEGMEDIV | 0.11 | 0.32 |
| SKAP1 D120K mutant, N2-fused (natural protein) MQAAALPEEIRWLLEDAEEFLAEGLRNENLSAVARDHRDHILRGFQQIKARYYWDFQPQGGDIGQDSSDDNHSGTLGLSLTSDAPFLSDYQDEGMEDIVKGAQELDNVIKQGYLEKKSKKHSFFGSEWQKRWCVVSRGLFYYYANEKSKQPKGTFLIKGYGVRMAPHLRRDSKKESCFELTSQDRRSYEFTATSPAEARDWVDQISFLLKDLSSLTIPYEEDEEEEEKEETYDDIDGFDSPSCGSQCRPTILPGSVGIKEPTEEKEEEDIYEVLPDEEHDLEEDESGTRRKGVDYASYYQGLWDCHGDQPDELSFQRGDLIRILSKEYNMYGWWVGELNSLVGIVPKEYLTTAFEVEER | 1.17 | 1.49 |
| SKAP1 W333K mutant, N2-fused (natural protein) MQAAALPEEIRWLLEDAEEFLAEGLRNENLSAVARDHRDHILRGFQQIKARYYWDFQPQGGDIGQDSSDDNHSGTLGLSLTSDAPFLSDYQDEGMEDIVKGAQELDNVIKQGYLEKKSKDHSFFGSEWQKRWCVVSRGLFYYYANEKSKQPKGTFLIKGYGVRMAPHLRRDSKKESCFELTSQDRRSYEFTATSPAEARDWVDQISFLLKDLSSLTIPYEEDEEEEEKEETYDDIDGFDSPSCGSQCRPTILPGSVGIKEPTEEKEEEDIYEVLPDEEHDLEEDESGTRRKGVDYASYYQGLWDCHGDQPDELSFQRGDLIRILSKEYNMYGKWVGELNSLVGIVPKEYLTTAFEVEER | 1.16 | 1.24 |
| SKAP1 ΔLink1PH deletion mutant, N2-fused (natural protein) MQAAALPEEIRWLLEDAEEFLAEGLRNENLSAVARDHRDHILRGFQQIKARYYWDFQPQGGDIGQDDLSSLTIPYEEDEEEEEKEETYDDIDGFDSPSCGSQCRPTILPGSVGIKEPTEEKEEEDIYEVLPDEEHDLEEDESGTRRKGVDYASYYQGLWDCHGDQPDELSFQRGDLIRILSKEYNMYGWWVGELNSLVGIVPKEYLTTAFEVEER | 1.57 | 0.96 |
| SKAP1 ΔSH3 mutant, N2-fused (domain or fragment) MQAAALPEEIRWLLEDAEEFLAEGLRNENLSAVARDHRDHILRGFQQIKARYYWDFQPQGGDIGQDSSDDNHSGTLGLSLTSDAPFLSDYQDEGMEDIVKGAQELDNVIKQGYLEKKSKDHSFFGSEWQKRWCVVSRGLFYYYANEKSKQPKGTFLIKGYGVRMAPHLRRDSKKESCFELTSQDRRSYEFTATSPAEARDWVDQISFLLKDLSSLTIPYEEDEEEEEKEETYDDIDGFDSPSCGSQCRPTILPGSVGIKEPTEEKEEEDIYEVLPDEEHDLEEDESGTRRK | 1.51 | 2.53 |

Reference: publication PMC10939263
